The results in this text go back to patent US20120164161A1 (AFFITECH RESEARCH, published 2012).

The target in test [1] is T1, human CC chemokine receptor 4 (CCR4) (human, UniProt P51679 1-360).
T1 construct: whole, on cells; also called human CCR4; CD194
T1 sequence (looked up): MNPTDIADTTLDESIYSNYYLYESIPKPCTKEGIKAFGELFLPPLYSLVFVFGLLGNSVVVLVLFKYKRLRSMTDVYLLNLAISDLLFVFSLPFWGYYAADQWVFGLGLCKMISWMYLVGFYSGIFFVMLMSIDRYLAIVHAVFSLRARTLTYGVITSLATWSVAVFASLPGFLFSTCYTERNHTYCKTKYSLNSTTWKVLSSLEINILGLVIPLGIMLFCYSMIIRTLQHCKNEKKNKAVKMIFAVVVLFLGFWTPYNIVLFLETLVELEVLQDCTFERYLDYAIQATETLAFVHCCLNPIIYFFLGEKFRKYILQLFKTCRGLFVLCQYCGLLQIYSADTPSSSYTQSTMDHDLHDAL
Kind of test: flow cytometry on CCRF-CEM cells; defucosylated IgG1, detected with RPE anti-human IgG; Median-PE [panel CCRF-CEM]. The protocol: (§1) All cells were re-suspended in PBS with 0.2% BSA and 0.09% NaN3 and finally aliquoted 1×10^5 cells per well into V-shaped 96-well plates (Greiner Bio-One, Frickenhausen, Germany). Cells were centrifuged at 400×g for 5 min and then incubated at 4° C. for 60 min with different IgG dilutions. For binding in presence of human serum, CCRF-CEM cells were incubated with different IgG-solutions at either 10% or 50% of human serum (Sigma Aldrich, St Louis, Mo., USA) at 37° C. for 60 min.
For orientation: A flow cytometer gives signals particle by particle.

The target of test [2] is T2, monkey (Macaca mulatta) CCR4 (monkey (Macaca mulatta), UniProt F7GUA3 1-360).
T2 construct: also called monkey CCR4
T2 sequence: T1 sequence (looked up) with M116I, L201I, L215F, E269D, L334F
Kind of test: flow cytometry on transiently transfected HEK-293T/17 cells, IgG 1 ug/ml (data not shown). The protocol:
(§2) For transient transfection, Hek293T/17 cells were seeded as 2×10^6 cells in a T75 (NUNC) flask. 48 h after seeding, the cells were transfected with Fugene (ROCHE). 40 μl Fugene and 16 μg DNA are used per T75. The cells were used for assays 48 h after transfection.
(§3) Non-transfected (CCR4 negative) cells served as a negative control. The cells were cultivated further for 48 hours under regular conditions and harvested form flasks as described above. One times 10^5 cells per well were aliquoted into V-shaped 96-well plates (Greiner Bio-One, Frikenhausen, Germany). […] The samples were then washed twice by centrifugation and re-suspension in 150 μl FACS buffer. […] The samples were washed twice as described above and re-suspended in 250 μl FACS buffer followed by transfer into a U-shaped 96-well plate (Corning, Schiphol-Rijk, Netherlands) for flow cytometry on FACSCantoII (BD Biosciences, San Jose, Calif.).

Test [3] deals with T1, human CC chemokine receptor 4 (CCR4). Kind of test: cell-based or functional assay.
For test [4] the target is unchanged. Kind of test: flow cytometry competition; IgG titrated from 5 ug/ml against fixed Alexa647 MDC-SNAP (50 nM); competitor MDC-SNAP.
The target is the same in test [5]. Kind of test: cell-based or functional assay. This is another data set of the same source.
The target is the same in test [6]. Kind of test: flow cytometry on Hut78 cells (CCR4-positive); defucosylated IgG1, detected with RPE anti-human IgG; Median-PE [panel Hut78]. How it is done: as §1
The target in the next test is T3, mouse CCR4 (mouse, UniProt P51680 1-360).
T3 construct: whole, on cells; also called murine CCR4
T3 sequence (looked up): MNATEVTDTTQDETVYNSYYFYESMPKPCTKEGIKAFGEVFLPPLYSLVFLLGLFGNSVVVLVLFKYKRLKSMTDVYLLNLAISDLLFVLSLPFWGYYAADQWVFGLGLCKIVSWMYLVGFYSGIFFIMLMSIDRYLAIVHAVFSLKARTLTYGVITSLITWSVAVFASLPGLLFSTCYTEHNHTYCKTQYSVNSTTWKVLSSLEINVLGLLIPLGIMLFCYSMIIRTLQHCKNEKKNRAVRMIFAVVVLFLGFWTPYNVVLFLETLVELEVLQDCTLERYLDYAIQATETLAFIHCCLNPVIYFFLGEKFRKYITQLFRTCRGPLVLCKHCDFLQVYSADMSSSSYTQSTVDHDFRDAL
Kind of test: flow cytometry on transiently transfected HEK-293T/17 cells, IgG 1 ug/ml. The protocol: as §2, §3

Test [7] deals with T1, human CC chemokine receptor 4 (CCR4). Kind of test: cell-based or functional assay. The source holds these as a separate data set.
Test [8] shares this target. Kind of test: flow cytometry competition; IgG titrated from 2.5 ug/ml against fixed biotinylated TARC; competitor biotinylated TARC.
Test [9] shares this target. Kind of test: cell-based or functional assay. The source holds these as a separate data set.
Test [10] has the same target. Kind of test: competition in flow cytometry on CCRF-CEM cells: scFv titrated against 50 nM Alexa647-labelled MDC-SNAP; remaining MDC-SNAP signal (Alexa 647). The protocol:
To determine whether the anti-CCR4 antibodies from Example 1 interfere with the binding of CCR4 ligands to the receptor, competition experiments were performed. […] The SNAP-tag is derived from the 20 kDa DNA repair protein 06-alkylguanine-DNA alkyltransferase.
The CCR4+ CCRF-CEM-cells were harvested from culture flasks, washed 2 times with RPMI-1640 culture medium and aliquot 1×10^5 cells per well into V-shaped 96-well plates (Greiner Bio-One, Frickenhausen, Germany). Cells were centrifuged at 500×g for 5 minutes and the supernatant was aspirated.

Positions count from the first letter of the chain named.

B1: IgG form of antibody 306 (defucosylated IgG1) (antibody, V domains shown)
VH: QVQLVQSGAEVKKPGSSVKVSCKASGGTFSSYAMSWVRQAPGQGLEWMGGIIPIFGTVNYAQKFQGRVTMTRDTSTSTVYMELSSLRPDDTAVYYCARRGGSYFDYWGQGTLVTVSS
VL: SYVLTQPPSASGTPGQSVTISCSGSTSNIGSHYVSWYQQLPGTAPRLLIYRNHQRPSGVPDRLSGSKSGTSASLAISGLRSEDEADYYCAVWDAKYRGWVFGGGTKLTVLG
notes: Human IgG1, lambda light chain; produced in presence of Kifunensine (defucosylated); Biotinylated via cysteines for the human serum experiment
As usually defined, the EC50 (read off the curve) is the concentration needed to bring the measured effect to its halfway point. The term IC50 denotes the concentration that gives 50% inhibition. On to B1, for which the “EC50 (read off the curve)” value in [1] was approximately 60 pM. In test [2], the binding result was “binds”. For the same molecule, in [3], the “Inhibition of MDC (Ca-Flux), Blockage of signaling in % at 10 µg/ml IgG” value turned out to be 74% and the “Inhibition of TARC (Ca-Flux), IC50” value was 39 pM. The same molecule had a 50% inhibitory concentration (IC50) in test [4] of 280 pM. Further, in test [5], the “ADCC on CCRF-CEM cells with human PBMCs, EC50” value (“ADCC on CCRF-CEM cells … EC50” below) is 114 pM; the “ADCC on CCRF-CEM cells, Max. Killing (%; nM IgG)” value was 118 % (at 1.4 nM IgG); the “ADCC on L-428 cells with human PBMCs, EC50” value (“ADCC on L-428 cells … EC50” for short) was 708 pM; the “ADCC on L-428 cells, Max. Killing (%; nM IgG)” value was 88 % (at 7 nM IgG). In test [6], the “EC50 (read off the curve)” value was approximately 60 pM. Besides, in the test with mouse CCR4, the binding result was “binds”. Moreover, in test [7], the “Inhibition of CCL17/TARC-induced migration of CCRF-CEM cells, IC50” value was 158 pM and the “Inhibition of CCL22/MDC-induced migration, Blockage of migration in % (IgG 10 µg/ml)” value was determined as 50%. The IC50 in test [8] was 510 pM.

B2: IgG form of antibody 406 (defucosylated IgG1) (antibody, V domains shown)
VH: B1 VH with G26E, P88S
VL: B1 VL
notes: as for B1
For B2, the “EC50 (read off the curve)” value in [1] is approximately 200 pM. Besides, in [2], the binding result is recorded as “binds”. In test [3], the “Inhibition of MDC (Ca-Flux), Blockage of signaling in % at 10 µg/ml IgG” value worked out at 74% and the “Inhibition of TARC (Ca-Flux), IC50” value was 28 pM. Moreover, the IC50 in [4] is 270 pM. Moreover, in [5], the “ADCC on CCRF-CEM cells … EC50” value came out at 99.9 pM; the “ADCC on CCRF-CEM cells, Max. Killing (%; nM IgG)” value is 121 % (at 1.4 nM IgG); the “ADCC on L-428 cells … EC50” value was 704 pM; the “ADCC on L-428 cells, Max. Killing (%; nM IgG)” value was 78 % (at 7 nM IgG). Further, the “EC50 (read off the curve)” value in test [6] is approximately 80 pM. Moreover, the binding result with mouse CCR4 is “binds”. Besides, in [7], the “Inhibition of CCL17/TARC-induced migration of CCRF-CEM cells, IC50” value stood at 178 pM and the “Inhibition of CCL22/MDC-induced migration, Blockage of migration in % (IgG 10 µg/ml)” value worked out at 49%. The same molecule came in with an IC50 in test [8] of 940 pM.

B3: 208 scFv (scFv, not shown: small tags and cut ends)
scFv: QVQLVQSGAEVKKPGSSVKVSCKASGGTFSSYAMSWVRQAPGQGLEWMGGIIPIFGTVNYAQKFQGRVTMTRDTSTSTVYMELSSLRSDDTAVYYCARRGGSYFDYWGQGTLVTVSSKLSGSASAPKLEEGEFSEARVSYVLTQPPSASGTPGQSVTISCSGSTSNIGSHYVFWYQQLPGTAPRLLIYRNHQRPSGVPDRLSGSKSGTSASLAISGLRSEDEADYYCAVWDAKYRGWVFGGGTKLTVL
Take B3: in test [9], the “IC50 of inhibition of TARC-mediated Ca-Flux in CCRF-CEM cells” value (shortened to “IC50 of inhibition … in CCRF-CEM cells”) came to 1.9 pM.

B4: 503 scFv (scFv, not shown: small tags and cut ends)
scFv: B3 scFv with G26E, G100R, S102A, Y103K, F173V, S215G, A232D, K233T, Y234L, R235S
notes: Expressed in TG1 bacteria
As for B4, the “IC50 of inhibition … in CCRF-CEM cells” value in test [9] came out at 1.2 pM. Moreover, the “IC50 (read off the curve)” value in [10] is approximately 300 pM.

B5: 501 scFv (scFv, not shown: small tags and cut ends)
scFv: QVQLVQSGAEVKKPGSSVKVSCKASEGTFSSYAMSWVRQAPGQGLEWMGGIIPIFGTVNYAQKFQGRVTMTRDTSTSTVYMELSSLRSDDTAVYYCARRRGAKFDYWGQGTLVTVSSKLSGSASAPKLEEGEFSEARVSYVLTQQPSASGTPGQSVTISCSGSTSNIGSHYVVWYQQLPGTAPRLLIYRNHQRPSGVPDRLSGSKSGTSASLAIGGLRSEDEADYYCAVWDDTLSGWVFGGGTKLTVL
notes: Expressed in TG1 bacteria; also called scFv 501; antibody 501 (single chain form)
Consider B5, for which the “IC50 of inhibition … in CCRF-CEM cells” value in test [9] is 1 pM. Also, the “IC50 (read off the curve)” value in test [10] was approximately 300 pM.

B6: 306 scFv (scFv, not shown: small tags and cut ends)
scFv: B3 scFv with S88P, F173S
Consider B6, for which the “IC50 of inhibition … in CCRF-CEM cells” value in test [9] was found to be 1.2 pM.

B7: 406 scFv (scFv, not shown: small tags and cut ends)
scFv: B3 scFv with G26E, F173S
notes: Expressed in TG1 bacteria
Turning to B7, the “IC50 of inhibition … in CCRF-CEM cells” value in [9] was 1 pM. In test [10], the “IC50 (read off the curve)” value is approximately 100 pM.

B8: 308 scFv (scFv, not shown: small tags and cut ends)
scFv: B3 scFv with S88P
Turning to B8, the “IC50 of inhibition … in CCRF-CEM cells” value in test [9] is 3 pM.

B9: 803 scFv (scFv, not shown: small tags and cut ends)
scFv: B5 scFv with E26G, M34I, V58A, D89E, Q145P
notes: Expressed in TG1 bacteria; also called scFv 803; antibody 803 (single chain form)
As to B9, the “IC50 of inhibition … in CCRF-CEM cells” value in [9] was 10 pM. The “IC50 (read off the curve)” value in test [10] was approximately 200 pM.

B10: KW0761 IgG (antibody, V domains shown)
VH: EVQLVESGGDLVQPGRSLRLSCAASGFIFSNYGMSWVRQAPGKGLEWVATISSASTYSYYPDSVKGRFTISRDNAKNSLYLQMNSLRVEDTALYYCGRHSDGNFAFGYWGQGTLVTVSS
VL: DVLMTQSPLSLPVTPGEPASISCRSSRNIVHINGDTYLEWYLQKPGQSPQLLIYKVSNRFSGVPDRFSGSGSGTDFTLKISRVEAEDVGVYYCFQGSLLPWTFGQGTKVEIK
Consider B10, for which, in test [5], the “ADCC on CCRF-CEM cells … EC50” value stood at 315 pM; the “ADCC on CCRF-CEM cells, Max. Killing (%; nM IgG)” value was 69.8 % (at 1.4 nM IgG); the “ADCC on L-428 cells … EC50” value was determined as 57 pM; the “ADCC on L-428 cells, Max. Killing (%; nM IgG)” value was 84 % (at 7 nM IgG).

B11: 601 scFv (scFv, not shown: small tags and cut ends)
scFv: QVQLVQSGAEVKKPGSSVKVSCKASGGTFSSYAMSWVRQAPGQGLEWMGGIIPIFGTVNYAQKFQGRVTMTRDTSTSTVYMELSSLRSDDTAVYYCARRRGAKFDYWGQGTLVTVSSKLSGSASAPKLEEGEFSEARVSYVLTQQPSASGTPGQSVTISCSGSTSNIGSHYVVWYQQLPGTAPRLLIYRNHQRPSGVPDRLSGSKSGTSASLAIGGLRSEDEADYYCAVWDDTLSGWVFGGGTKLTV
Regarding B11, in test [9], the “IC50 of inhibition … in CCRF-CEM cells” value came to 3 pM.
